The source of these data is patent US20240287172A1 (SCIRHOM, published 2024).

What all share (test): FACS on MEF-DKO cells
One assay addresses T1, hiR2-FL-R543Q-T7 (human, UniProt Q6PJF5 1-856).
T1 sequence: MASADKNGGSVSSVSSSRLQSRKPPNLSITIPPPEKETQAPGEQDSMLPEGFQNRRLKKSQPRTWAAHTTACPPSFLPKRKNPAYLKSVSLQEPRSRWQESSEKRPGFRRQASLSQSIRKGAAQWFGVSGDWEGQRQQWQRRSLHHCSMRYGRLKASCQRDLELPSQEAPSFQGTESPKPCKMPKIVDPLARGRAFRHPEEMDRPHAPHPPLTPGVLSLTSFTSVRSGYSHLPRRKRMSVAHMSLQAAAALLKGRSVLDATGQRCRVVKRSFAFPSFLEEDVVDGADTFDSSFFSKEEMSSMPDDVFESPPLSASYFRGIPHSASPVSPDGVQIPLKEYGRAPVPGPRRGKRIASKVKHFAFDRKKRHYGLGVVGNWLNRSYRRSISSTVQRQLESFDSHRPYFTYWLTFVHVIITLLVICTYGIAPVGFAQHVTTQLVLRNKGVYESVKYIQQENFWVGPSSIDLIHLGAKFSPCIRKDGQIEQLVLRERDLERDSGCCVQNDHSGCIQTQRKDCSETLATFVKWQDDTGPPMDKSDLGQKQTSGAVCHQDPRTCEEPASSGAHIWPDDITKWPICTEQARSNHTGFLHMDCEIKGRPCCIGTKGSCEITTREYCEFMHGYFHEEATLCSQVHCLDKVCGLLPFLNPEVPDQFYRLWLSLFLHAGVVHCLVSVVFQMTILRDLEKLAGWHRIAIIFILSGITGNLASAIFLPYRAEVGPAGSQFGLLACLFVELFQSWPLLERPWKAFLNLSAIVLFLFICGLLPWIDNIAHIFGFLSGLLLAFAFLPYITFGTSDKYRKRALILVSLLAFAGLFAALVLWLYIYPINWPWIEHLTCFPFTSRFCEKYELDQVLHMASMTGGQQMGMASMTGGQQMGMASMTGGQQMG

In assay [1] the target is T2, hiR1-FL-WT-T7 (human, UniProt Q96CC6 1-855).
T2 construct: on MEF-DKO cells
T2 sequence: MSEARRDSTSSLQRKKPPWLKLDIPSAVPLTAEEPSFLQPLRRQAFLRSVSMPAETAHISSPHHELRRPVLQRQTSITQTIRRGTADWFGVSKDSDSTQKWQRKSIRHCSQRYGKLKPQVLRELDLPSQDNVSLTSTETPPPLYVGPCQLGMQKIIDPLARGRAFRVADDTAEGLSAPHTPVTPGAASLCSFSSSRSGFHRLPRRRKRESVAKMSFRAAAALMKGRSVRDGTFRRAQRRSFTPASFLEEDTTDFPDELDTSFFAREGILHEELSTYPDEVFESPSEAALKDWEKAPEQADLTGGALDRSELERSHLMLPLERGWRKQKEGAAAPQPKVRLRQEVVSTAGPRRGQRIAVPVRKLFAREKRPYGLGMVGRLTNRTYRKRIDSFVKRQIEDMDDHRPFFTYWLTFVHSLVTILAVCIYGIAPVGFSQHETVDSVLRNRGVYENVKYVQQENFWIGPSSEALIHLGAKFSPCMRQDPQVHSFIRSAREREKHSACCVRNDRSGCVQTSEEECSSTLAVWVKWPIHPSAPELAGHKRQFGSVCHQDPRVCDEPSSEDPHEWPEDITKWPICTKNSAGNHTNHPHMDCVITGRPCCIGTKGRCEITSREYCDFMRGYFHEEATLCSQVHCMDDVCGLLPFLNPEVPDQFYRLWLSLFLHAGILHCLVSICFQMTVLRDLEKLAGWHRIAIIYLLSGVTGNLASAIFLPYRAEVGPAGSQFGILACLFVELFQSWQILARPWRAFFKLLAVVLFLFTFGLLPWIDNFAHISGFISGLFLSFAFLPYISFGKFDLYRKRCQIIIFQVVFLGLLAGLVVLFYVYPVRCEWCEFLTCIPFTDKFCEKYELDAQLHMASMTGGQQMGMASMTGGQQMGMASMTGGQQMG

Assay [2] concerns the target T2, hiR1-FL-WT-T7. This is another data set of the same source.

Like-named read-outs stand apart in the source and are kept apart here.

B1: antibody 34 (antibody, V domains shown)
VH: QVTLKESGPGILQPSQTLSLTCSFSGFSLSTFSLGVGWIRQSSGKGLEWLAHIWWDDEKYYNPALKSRLTISKDTSKNQVFLKIANVDAADTATYYCARAYYSKSYYALDYWGQGTSVTVSS
VL: DIQMTQSPSSLSASLGERVSLTCRASQEISGYLSWLQQKPDGTIKRLIYAASTLDSGVPKRFSGSRSGSDYSLAISSLESEDFADYYCLQYANFPFTFGSGTKLEIK
notes: mouse IgG, kappa light chain; also called clone #34; purified antibody 34
Turning to B1, the binding result with hiR2-FL-R543Q-T7 and with hiR1-FL-WT-T7 [1] was “no binding (tested: 3 µg/ml)” throughout.

B2: antibody 16 (antibody, V domains shown)
VH: QVTLKESGPGILQPSQTLSLTCSFSGFSLSTFALGVGWIRQPSGRGLEWLAHIWWDDDKYYNPALKSRLTISKDTSKNHVFLKIANVDTADTATYYCARITTYYYGMDYWGQGTSVTVSS
VL: DIVLSQSPATLSVTPGDSVSLFCRASQSIGNHLHWYQQESHASPRLLIKYASQSISGIPSRFSGSGSGTDFTLSINSVETEDFGMYFCQQSYNWPLTFGAGTKLELK
notes: mouse IgG, kappa light chain; also called clone #16; purified antibody 16
For B2, the binding result in the assay with hiR1-FL-WT-T7 [2] is on record as “no binding (tested: 3 µg/ml)”.

B3: antibody 50 (antibody, V domains shown)
VH: QVQLQQSGAELVRPGASVKVSCKASGYAFSNYLIEWVKQRPGQGLEWIGVINPGSGFTKYNEKFKGKATLTADKSSSTAYMQLSSLTSEDSAVYFCARGLYRAMDYWGQGTSVTVSS
VL: DIQMTQSPASQSASLGESVTITCLASQTIGTWLAWYQQKPGKSPQLLIYAAASLADGVPSRFSGGGSGTKFSFKISSLQAEDFVNYYCQQIYSTPYTFGGGTKLEIK
notes: mouse IgG, kappa light chain; also called clone #50; purified antibody 50
For B3, the binding result in the assay with hiR1-FL-WT-T7 [1] is “no binding (tested: 3 µg/ml)”.

B4: antibody 5 (antibody, V domains shown)
VH: QVTLKESGPGILQPSQTLSLTCSFSGFSLSTFGMGVGWIRQPSGKGLEWLAHIWWDDEKYYNSALKSRLTISKATSKNQAFLKIANVDTADTATYYCARISNYGSNYWYFNVWGTGTTVTVSS
VL: QVVLTQSPALMSASPGEKVTMTCSAGSSVSCMYWYQQKPGSSPRVLIYDTSNLASGVPARFTGSGSGTSYSLTISRMEAEDAASYYCQQWNSYPLTFGAGTKLELK
notes: mouse IgG, kappa light chain; also called clone #5; purified antibody 5
Consider B4, for which the binding result in the assay with hiR1-FL-WT-T7 [2] and in the assay with hiR2-FL-R543Q-T7 was “no binding (tested: 3 µg/ml)” throughout.

B5: antibody 42 (antibody, V domains shown)
VH: QVTLKESGPGILQPSQTLSLTCSLSGFSLSTFGRGVGWIRQPSGKGLEWLAHIWWDDEKYYNPALKSRLTISKDTSKNQVFLRIANVDTADTATYYCARIQNYGSNYWYFDVWGTGTTVTVSS
VL: LIVLTQSPAIMSASPGEKVTMTCGATSRISYMFWYQQKPGSSPRVLIYDTSNLASGVPVRFSGSGSGTSYSLTISRVEAEDVATYYCQQWNSYPLTFGAGTKLELK
notes: mouse IgG, kappa light chain; also called clone #42; purified antibody 42
Consider B5, for which the binding result with hiR2-FL-R543Q-T7 and with hiR1-FL-WT-T7 [1] was “no binding (tested: 3 µg/ml)” throughout.

B6: antibody 44 (antibody, V domains shown)
VH: QVTLKESGPGILQPSQTLSLTCSFSGFSLSTFGMGVGWIRQPSEKGLEWLAHIWWDDDKYYNPALKSRLTISKDTSKNQIFLKITNVDTAETATYYCSRIGNYGSNYWYFDVWGTGTTVTVSS
VL: QIVLTQSPAVMSASPGEKVTMTCTASSSVYYMYWYQQTPGSSPRLLIYDTSNLASGVPVRFSGSGSGTSYSLTISRMEAEDAATYYCQQWNTYPLTFGAGTKLELK
notes: mouse IgG, kappa light chain; also called clone #44; purified antibody 44
As to B6, in the assay with hiR1-FL-WT-T7 [1], the binding result is “no binding (tested: 3 µg/ml)”.

B7: antibody 43 (antibody, V domains shown)
VH: QVALKESGPGILQPSQTLSLTCSFSGFSLSTFGMGVGWIRQSSGKGLEWLANIWWDDDKYYNPALKSRLTISKDASKNQAFLKIANVDTADTATYYCARIGNYGSNYWYFDVWGTGTTVTVSS
VL: QIVLTQSPAIMSASPGERVTMTCSANSRISYMYWYQQKPGSSPRLLIYDTSNLASGVPVRFSGSGSGTSYSLTISRMEAEDAATYNCQQWSSYPLTFGAGTKLELK
notes: mouse IgG, kappa light chain; also called clone #43; purified antibody 43
As to B7, the binding result with hiR2-FL-R543Q-T7 and with hiR1-FL-WT-T7 [1] was “no binding (tested: 3 µg/ml)” throughout.

B8: antibody 22 (antibody, V domains shown)
VH: QVTLKESGPGILQPSQTLSLTCSFSGFSLSTFGMGVGWIRQPSGKGLEWLAHIWWDDEKYYNSALKSRLTISKATSKNQVFLKIANVDTADTATYYCARISNYGSNYWYFNVWGTGTTVTVSS
VL: QVVLTQSPALMSASPGEKVTMTCSAGSSVSYMYWYQQKPGSSPRVLIYDTSNLASGVPARFTGSGSGTSYSLTISRMEAEDAATYYCQQWNSYPLTFGAGTKLELK
notes: mouse IgG, kappa light chain; also called clone #22; purified antibody 22
As for B8, the binding result in the assay with hiR1-FL-WT-T7 [2] is given as “no binding (tested: 3 µg/ml)”.
